Values quoted from earlier work as cited in article PMC3889014.

Biological target: Cys145 (UniProt position 145, PILIPCHRVVC)

## O6-alkylguanine DNA-alkyltransferase (AGT; MGMT) (Homo sapiens (inferred; not stated in the sentence with the pKa))
  pKa: 4–5
